Target: human EGFR tagged with mTurquoise at the C-terminus (EGFR-mTurquoise) (human) (UniProt P00533)

K (resp) of the transducer function for Y1068 phosphorylation (phosphorylation against ligand-bound EGFR fraction in single vesicles) (fraction of ligand-bound receptors): 0.4
K (resp) of the transducer function for Y1173 phosphorylation (phosphorylation against ligand-bound EGFR fraction in single vesicles) (fraction of ligand-bound receptors): 0.86
Substance: EGF ligand from mouse labeled with rhodamine at its N-terminus (rho-mEGF)

— paper PMC10663608
